tested on: Escherichia coli TOP10; experiment: shrunken log2 fold change of peptide-encoding DNA abundance (4.5 h post-induction vs induction); higher = less antimicrobial activity (less host growth inhibition); conditions: time post-induction: 4.5 h; library: site-saturation at positions 5, 18, 19, 20
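Note: peptides expressed intracellularly from a pBAD plasmid library in pooled LB shake-flask culture, induced with 0.3% L-arabinose, DNA abundance read by NGS, three biological replicates, DESeq2 with apeglm shrinkage.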

Row | Sequence | shrunken log2 fold change
1 | RRIRVRPPRLPRPRPRPDPDPRP | -0.0209
2 | RRIRERPPRLPRPRPRPQRCPRP | -0.0721
3 | RRIRTRPPRLPRPRPRPNLDPRP | 0.0338
4 | RRIRGRPPRLPRPRPRPCWCPRP | 0.171
5 | RRIRGRPPRLPRPRPRPSWFPRP | 0.373
6 | RRIRCRPPRLPRPRPRPDPVPRP | 0.205
7 | RRIRLRPPRLPRPRPRPPCGPRP | 0.191
8 | RRIRMRPPRLPRPRPRPVNQPRP | -0.0449
9 | RRIRHRPPRLPRPRPRPCTCPRP | -0.0115
10 | RRIRCRPPRLPRPRPRPHMMPRP | -1.12
11 | RRIRRRPPRLPRPRPRPIDAPRP | 0.227
12 | RRIRERPPRLPRPRPRPKCTPRP | -0.882
13 | RRIRQRPPRLPRPRPRPMWCPRP | -0.339
14 | RRIRIRPPRLPRPRPRPMCNPRP | -0.0808
15 | RRIRKRPPRLPRPRPRPWDMPRP | 0.142
16 | RRIRSRPPRLPRPRPRPRPKPRP | 0.518
17 | RRIRHRPPRLPRPRPRPAIYPRP | -0.798
18 | RRIRGRPPRLPRPRPRPFIYPRP | 0.0217
19 | RRIRCRPPRLPRPRPRPDCWPRP | 0.23
20 | RRIRWRPPRLPRPRPRPINHPRP | -0.914
21 | RRIRCRPPRLPRPRPRPRTMPRP | -0.0155
22 | RRIRVRPPRLPRPRPRPYLMPRP | -0.587
23 | RRIRCRPPRLPRPRPRPETNPRP | 0.222
24 | RRIRCRPPRLPRPRPRPHNVPRP | -0.194
25 | RRIRKRPPRLPRPRPRPWPVPRP | 0.47

Row | Sequence | shrunken log2 fold change
26 | RRIRVRPPRLPRPRPRPMGDPRP | -0.104
27 | RRIRWRPPRLPRPRPRPQAWPRP | 0.23
28 | RRIRERPPRLPRPRPRPKTHPRP | -0.392
29 | RRIRYRPPRLPRPRPRPHQMPRP | -0.0207
30 | RRIRWRPPRLPRPRPRPHTGPRP | -0.233
31 | RRIRPRPPRLPRPRPRPKTSPRP | 0.0127
32 | RRIRHRPPRLPRPRPRPTADPRP | 0.202
33 | RRIRNRPPRLPRPRPRPDNEPRP | 0.114
34 | RRIRWRPPRLPRPRPRPQYRPRP | 0.00862
35 | RRIRGRPPRLPRPRPRPGHMPRP | -0.129
36 | RRIRVRPPRLPRPRPRPSSFPRP | -0.423
37 | RRIRQRPPRLPRPRPRPYWMPRP | 0.0425
38 | RRIRSRPPRLPRPRPRPAPKPRP | 0.569
39 | RRIRQRPPRLPRPRPRPVIRPRP | -0.406
40 | RRIRYRPPRLPRPRPRPQMTPRP | 0.0454
41 | RRIRQRPPRLPRPRPRPPLIPRP | 0.0445
42 | RRIRWRPPRLPRPRPRPIKKPRP | -0.0218
43 | RRIRLRPPRLPRPRPRPDIEPRP | 0.0333
44 | RRIRIRPPRLPRPRPRPRKVPRP | -0.0904
45 | RRIRMRPPRLPRPRPRPCSCPRP | 0.183
46 | RRIRYRPPRLPRPRPRPRGAPRP | 1.34
47 | RRIRDRPPRLPRPRPRPTMLPRP | 0.138
48 | RRIRWRPPRLPRPRPRPQLNPRP | 0.679
49 | RRIRMRPPRLPRPRPRPWEQPRP | 0.0405
50 | RRIRTRPPRLPRPRPRPWTCPRP | -0.0449

Row | Sequence | shrunken log2 fold change
51 | RRIRTRPPRLPRPRPRPVQVPRP | 0.0995
52 | RRIRLRPPRLPRPRPRPHEEPRP | 0.13
53 | RRIRLRPPRLPRPRPRPGPWPRP | 0.325
54 | RRIRYRPPRLPRPRPRPQHSPRP | -0.978
55 | RRIRWRPPRLPRPRPRPWATPRP | 0.168
56 | RRIRLRPPRLPRPRPRPACCPRP | 0.0218
57 | RRIRLRPPRLPRPRPRPTPWPRP | 0.381
58 | RRIRKRPPRLPRPRPRPTIPPRP | 0.263
59 | RRIRSRPPRLPRPRPRPCMCPRP | -0.0077
60 | RRIRDRPPRLPRPRPRPEKIPRP | 0.652
61 | RRIRGRPPRLPRPRPRPRNPPRP | 0.52
62 | RRIRCRPPRLPRPRPRPRIGPRP | 0.016
63 | RRIRSRPPRLPRPRPRPCAWPRP | -0.035
64 | RRIRVRPPRLPRPRPRPVAQPRP | 0.247
65 | RRIRPRPPRLPRPRPRPSLFPRP | -0.344
66 | RRIRYRPPRLPRPRPRPSRFPRP | -0.074
67 | RRIRLRPPRLPRPRPRPFMFPRP | -0.306
68 | RRIRDRPPRLPRPRPRPYDSPRP | -0.0305
69 | RRIRWRPPRLPRPRPRPRVTPRP | 1.75
70 | RRIRGRPPRLPRPRPRPMHEPRP | 0.928
71 | RRIRDRPPRLPRPRPRPKSAPRP | 0.0797
72 | RRIRRRPPRLPRPRPRPWSMPRP | -0.121
73 | RRIRARPPRLPRPRPRPMILPRP | 0.0109
74 | RRIRSRPPRLPRPRPRPFAEPRP | 0.256
75 | RRIRLRPPRLPRPRPRPEDAPRP | 0.368

Row | Sequence | shrunken log2 fold change
76 | RRIRARPPRLPRPRPRPSERPRP | -0.132
77 | RRIRTRPPRLPRPRPRPGSMPRP | -0.199
78 | RRIRARPPRLPRPRPRPLNEPRP | 0.137
79 | RRIRSRPPRLPRPRPRPMVEPRP | 0.884
80 | RRIRDRPPRLPRPRPRPALEPRP | 0.659
81 | RRIRLRPPRLPRPRPRPWHMPRP | 0.041
82 | RRIRARPPRLPRPRPRPEFMPRP | 0.115
83 | RRIRARPPRLPRPRPRPRRGPRP | 0.759
84 | RRIRMRPPRLPRPRPRPGNYPRP | -0.0658
85 | RRIRHRPPRLPRPRPRPIEFPRP | -0.19
86 | RRIRRRPPRLPRPRPRPGSMPRP | -0.387
87 | RRIRFRPPRLPRPRPRPDEYPRP | -0.014
88 | RRIRWRPPRLPRPRPRPSCIPRP | -0.261
89 | RRIRNRPPRLPRPRPRPEMRPRP | -0.0181
90 | RRIRKRPPRLPRPRPRPFHQPRP | -0.0483
91 | RRIRVRPPRLPRPRPRPAIEPRP | 0.0433
92 | RRIRKRPPRLPRPRPRPAHFPRP | 0.232
93 | RRIRVRPPRLPRPRPRPYPIPRP | -0.0204
94 | RRIRERPPRLPRPRPRPNPHPRP | -0.234
95 | RRIRMRPPRLPRPRPRPNDEPRP | 0.699
96 | RRIRIRPPRLPRPRPRPFQKPRP | -0.0135
97 | RRIRFRPPRLPRPRPRPIPIPRP | -0.648
98 | RRIRHRPPRLPRPRPRPMGVPRP | -0.00663
99 | RRIRCRPPRLPRPRPRPNLIPRP | -0.872
100 | RRIRYRPPRLPRPRPRPAHWPRP | 0.0585

Row | Sequence | shrunken log2 fold change
101 | RRIRERPPRLPRPRPRPWHCPRP | -0.0723
102 | RRIRDRPPRLPRPRPRPQNFPRP | -0.707
103 | RRIRFRPPRLPRPRPRPSSFPRP | -0.227
104 | RRIRQRPPRLPRPRPRPSTTPRP | -0.572
105 | RRIRTRPPRLPRPRPRPEQPPRP | 0.309
106 | RRIRPRPPRLPRPRPRPDFCPRP | -0.0633
107 | RRIRGRPPRLPRPRPRPVHRPRP | -0.0492
108 | RRIRRRPPRLPRPRPRPVFYPRP | -0.0199
109 | RRIRVRPPRLPRPRPRPINVPRP | -0.342
110 | RRIRIRPPRLPRPRPRPLLCPRP | -0.462
111 | RRIRHRPPRLPRPRPRPGMFPRP | -0.178
112 | RRIRLRPPRLPRPRPRPIHHPRP | -0.246
113 | RRIRQRPPRLPRPRPRPKAWPRP | -0.0334
114 | RRIRYRPPRLPRPRPRPKIMPRP | -0.131
115 | RRIRLRPPRLPRPRPRPSCKPRP | 0.0208
116 | RRIRIRPPRLPRPRPRPIYPPRP | -0.304
117 | RRIRGRPPRLPRPRPRPPWWPRP | 0.953
118 | RRIRRRPPRLPRPRPRPRGIPRP | 0.169
119 | RRIRVRPPRLPRPRPRPQYVPRP | -0.262
120 | RRIRTRPPRLPRPRPRPWYWPRP | -0.0177
121 | RRIRCRPPRLPRPRPRPNYVPRP | -0.304
122 | RRIRKRPPRLPRPRPRPHEQPRP | -0.00968
123 | RRIRRRPPRLPRPRPRPQPIPRP | 0.206
124 | RRIRYRPPRLPRPRPRPRYGPRP | -0.678
125 | RRIRCRPPRLPRPRPRPPSAPRP | 0.345

Row | Sequence | shrunken log2 fold change
126 | RRIRIRPPRLPRPRPRPRMRPRP | 0.791
127 | RRIRCRPPRLPRPRPRPCVWPRP | -0.013
128 | RRIRKRPPRLPRPRPRPMFLPRP | -0.0587
129 | RRIRVRPPRLPRPRPRPAGTPRP | 0.146
130 | RRIRKRPPRLPRPRPRPVIQPRP | -0.0501
131 | RRIRIRPPRLPRPRPRPLQGPRP | -0.182
132 | RRIRIRPPRLPRPRPRPKIWPRP | 0.145
133 | RRIRHRPPRLPRPRPRPYRDPRP | -0.0135
134 | RRIRDRPPRLPRPRPRPFTAPRP | -0.128
135 | RRIRFRPPRLPRPRPRPNTCPRP | -0.483
136 | RRIRDRPPRLPRPRPRPLPEPRP | 0.0958
137 | RRIRFRPPRLPRPRPRPKVEPRP | 0.114
138 | RRIRYRPPRLPRPRPRPAKIPRP | -0.0227
139 | RRIRRRPPRLPRPRPRPNSEPRP | 0.381
140 | RRIRNRPPRLPRPRPRPFNYPRP | -0.752
141 | RRIRGRPPRLPRPRPRPTSVPRP | 0.197
142 | RRIRLRPPRLPRPRPRPFDCPRP | 0.00355
143 | RRIRLRPPRLPRPRPRPHMDPRP | -0.549
144 | RRIRRRPPRLPRPRPRPGEQPRP | 0.301
145 | RRIRDRPPRLPRPRPRPGMLPRP | -0.0263
146 | RRIRTRPPRLPRPRPRPNCDPRP | 1.31
147 | RRIRMRPPRLPRPRPRPDFDPRP | 0.15
148 | RRIRGRPPRLPRPRPRPRDEPRP | 0.293
149 | RRIRMRPPRLPRPRPRPMRNPRP | 1.62
150 | RRIRWRPPRLPRPRPRPRAQPRP | 0.56

Reference: the supplement of paper PMC9112550, “Optimization of the antimicrobial peptide Bac7 by deep mutational scanning” (BMC Biology, 2022)
